Results: patent publication US20090004163, “METHOD OF ENHANCING PROLIFERATION AND/OR HEMATOPOIETIC DIFFERENTIATION OF STEM CELLS” (THE CHILDREN'S MEDICAL CENTER CORPORATION, published 2009)

Target: Cdx4 F170L (kggtl240) (Danio rerio, UniProt A8KBT9 A8KBT9:1-270, F170L)
Assay: EMSA; mutation prevents binding to cdx4 consensus site
Settings: tags: TNT SP6 IVT (Promega)

Sequence of Cdx4 F170L (kggtl240) (A8KBT9 entry or part of it F170L | F170L F170L, one chain of several): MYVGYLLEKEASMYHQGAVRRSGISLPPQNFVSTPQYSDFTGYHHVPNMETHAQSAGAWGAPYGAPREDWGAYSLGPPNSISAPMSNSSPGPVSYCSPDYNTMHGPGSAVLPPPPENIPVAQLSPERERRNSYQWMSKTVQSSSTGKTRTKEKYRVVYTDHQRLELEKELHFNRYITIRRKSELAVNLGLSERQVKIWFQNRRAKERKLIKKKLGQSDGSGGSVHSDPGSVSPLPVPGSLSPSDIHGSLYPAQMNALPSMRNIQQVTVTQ

B1: consensus cdx binding site probe (dsDNA)
DNA 1: GAGAAATTTATATTGT
DNA 2: ACAATATAAATTTCTC
binding result: no binding
